What all share (assay): ITC
A general note: ITC needs no label: the signal is the heat of the interaction.

Assay [1] concerns the target aprataxin FHA domain K38A (residues 1-105).
Assay [2] concerns the target T1, APLF FHA domain (residues 1-106) (UniProt Q8IW19 1-106).
T1 chain: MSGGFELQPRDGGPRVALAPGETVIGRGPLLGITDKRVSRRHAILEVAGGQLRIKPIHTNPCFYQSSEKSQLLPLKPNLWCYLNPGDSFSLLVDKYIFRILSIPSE

In assay [3] the target is aprataxin FHA domain (residues 1-105).

These results are taken from article PMC4655838 (2015).

Square brackets hold non-standard residues; d marks the D form. Ends that are not written are not given here. pT = C[C@@H](OP(=O)(O)O)[C@H](N)C(=O)O; pS = N[C@@H](COP(=O)(O)O)C(=O)O

Sequence of aprataxin FHA domain (residues 1-105) (chain, as listed by the source): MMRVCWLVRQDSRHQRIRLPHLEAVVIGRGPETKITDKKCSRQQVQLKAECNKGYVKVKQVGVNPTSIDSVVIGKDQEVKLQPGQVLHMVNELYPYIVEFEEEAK
Sequence of aprataxin FHA domain K38A (residues 1-105) (chain, as listed by the source K38A): as the sequence (chain, as listed by the source) above, with K38A counted along it

B1: XRCC1 515-529 peptide phosphorylated on Thr519 (peptide)
peptide: YAGSTDENTDSEEHQ
HELM: PEPTIDE1{Y.A.G.S.[C[C@@H](OP(=O)(O)O)[C@H](N[*:1])C(=O)[*:2]].D.E.N.T.D.S.E.E.H.Q.[am]}$$$$V2.0; N-terminus assumed
SMILES: C[C@H](NC(=O)[C@@H](N)Cc1ccc(O)cc1)C(=O)NCC(=O)N[C@@H](CO)C(=O)N[C@H](C(=O)N[C@@H](CC(=O)O)C(=O)N[C@@H](CCC(=O)O)C(=O)N[C@@H](CC(N)=O)C(=O)N[C@H](C(=O)N[C@@H](CC(=O)O)C(=O)N[C@@H](CO)C(=O)N[C@@H](CCC(=O)O)C(=O)N[C@@H](CCC(=O)O)C(=O)N[C@@H](Cc1c[nH]cn1)C(=O)N[C@@H](CCC(N)=O)C(N)=O)[C@@H](C)O)[C@@H](C)OP(=O)(O)O
Turning to B1, the Kd in assay [1] was 46.3 µM; in assay [2], 30 µM; in assay [3], 17 µM.

B2: XRCC1 515-529 peptide phosphorylated on Ser518, Thr519, Thr523 and Ser525 (peptide)
peptide: YAG[pS][pT]DEN[pT]D[pS]EEHQ-NH2
modifications: N-terminus assumed
SMILES: C[C@H](NC(=O)[C@@H](N)Cc1ccc(O)cc1)C(=O)NCC(=O)N[C@@H](COP(=O)(O)O)C(=O)N[C@H](C(=O)N[C@@H](CC(=O)O)C(=O)N[C@@H](CCC(=O)O)C(=O)N[C@@H](CC(N)=O)C(=O)N[C@H](C(=O)N[C@@H](CC(=O)O)C(=O)N[C@@H](COP(=O)(O)O)C(=O)N[C@@H](CCC(=O)O)C(=O)N[C@@H](CCC(=O)O)C(=O)N[C@@H](Cc1c[nH]cn1)C(=O)N[C@@H](CCC(N)=O)C(N)=O)[C@@H](C)OP(=O)(O)O)[C@@H](C)OP(=O)(O)O
Take B2: the Kd was determined as 11 µM in assay [2] and 0.87 µM in assay [3].

B3: XRCC1 515-529 peptide phosphorylated on Ser518 and Thr519 (peptide)
peptide: YAGSTDENTDSEEHQ
HELM: PEPTIDE1{Y.A.G.[O=C([C@H](COP(=O)(O)O)N[*:1])[*:2]].[C[C@@H](OP(=O)(O)O)[C@H](N[*:1])C(=O)[*:2]].D.E.N.T.D.S.E.E.H.Q.[am]}$$$$V2.0; N-terminus assumed
SMILES: C[C@H](NC(=O)[C@@H](N)Cc1ccc(O)cc1)C(=O)NCC(=O)N[C@@H](COP(=O)(O)O)C(=O)N[C@H](C(=O)N[C@@H](CC(=O)O)C(=O)N[C@@H](CCC(=O)O)C(=O)N[C@@H](CC(N)=O)C(=O)N[C@H](C(=O)N[C@@H](CC(=O)O)C(=O)N[C@@H](CO)C(=O)N[C@@H](CCC(=O)O)C(=O)N[C@@H](CCC(=O)O)C(=O)N[C@@H](Cc1c[nH]cn1)C(=O)N[C@@H](CCC(N)=O)C(N)=O)[C@@H](C)O)[C@@H](C)OP(=O)(O)O
On to B3, for which the Kd in assay [1] was 12.8 µM; in assay [2] it was 8.1 µM; in assay [3], 1.5 µM.

B4: XRCC4 229-237 peptide phosphorylated on Ser232 and Thr233 (peptide)
peptide: YDESTDEES
HELM: PEPTIDE1{Y.D.E.[O=C([C@H](COP(=O)(O)O)N[*:1])[*:2]].[C[C@@H](OP(=O)(O)O)[C@H](N[*:1])C(=O)[*:2]].D.E.E.S.[am]}$$$$V2.0; N-terminus assumed
SMILES: C[C@@H](OP(=O)(O)O)[C@H](NC(=O)[C@H](COP(=O)(O)O)NC(=O)[C@H](CCC(=O)O)NC(=O)[C@H](CC(=O)O)NC(=O)[C@@H](N)Cc1ccc(O)cc1)C(=O)N[C@@H](CC(=O)O)C(=O)N[C@@H](CCC(=O)O)C(=O)N[C@@H](CCC(=O)O)C(=O)N[C@@H](CO)C(N)=O
For the molecule B4, the Kd was found to be 1.9 µM in assay [1], 0.47 µM in assay [2] and 0.25 µM in assay [3].

B5: XRCC1 515-529 peptide phosphorylated on Ser518, Thr519 and Thr523 (peptide)
peptide: YAG[pS][pT]DEN[pT]DSEEHQ-NH2
modifications: N-terminus assumed
SMILES: C[C@H](NC(=O)[C@@H](N)Cc1ccc(O)cc1)C(=O)NCC(=O)N[C@@H](COP(=O)(O)O)C(=O)N[C@H](C(=O)N[C@@H](CC(=O)O)C(=O)N[C@@H](CCC(=O)O)C(=O)N[C@@H](CC(N)=O)C(=O)N[C@H](C(=O)N[C@@H](CC(=O)O)C(=O)N[C@@H](CO)C(=O)N[C@@H](CCC(=O)O)C(=O)N[C@@H](CCC(=O)O)C(=O)N[C@@H](Cc1c[nH]cn1)C(=O)N[C@@H](CCC(N)=O)C(N)=O)[C@@H](C)OP(=O)(O)O)[C@@H](C)OP(=O)(O)O
Consider B5, for which the Kd in assay [1] was found to be 3.8 µM; in assay [2], 11 µM; in assay [3], 0.5 µM.

B6: YAGSTDENpTDpSEEHQ (peptide)
chain: YAGSTDENTDSEEHQ
HELM: PEPTIDE1{Y.A.G.S.T.D.E.N.[C[C@@H](OP(=O)(O)O)[C@H](N[*:1])C(=O)[*:2]].D.[O=C([C@H](COP(=O)(O)O)N[*:1])[*:2]].E.E.H.Q.[am]}$$$$V2.0; N-terminus assumed
SMILES: C[C@H](NC(=O)[C@@H](N)Cc1ccc(O)cc1)C(=O)NCC(=O)N[C@@H](CO)C(=O)N[C@H](C(=O)N[C@@H](CC(=O)O)C(=O)N[C@@H](CCC(=O)O)C(=O)N[C@@H](CC(N)=O)C(=O)N[C@H](C(=O)N[C@@H](CC(=O)O)C(=O)N[C@@H](COP(=O)(O)O)C(=O)N[C@@H](CCC(=O)O)C(=O)N[C@@H](CCC(=O)O)C(=O)N[C@@H](Cc1c[nH]cn1)C(=O)N[C@@H](CCC(N)=O)C(N)=O)[C@@H](C)OP(=O)(O)O)[C@@H](C)O
Turning to B6, the figures for the Kd in assay [2] and in assay [3] were 17 µM and 33 µM, respectively.

B7: XRCC1 515-529 peptide phosphorylated solely on Thr523 (peptide)
peptide: YAGSTDENTDSEEHQ
HELM: PEPTIDE1{Y.A.G.S.T.D.E.N.[C[C@@H](OP(=O)(O)O)[C@H](N[*:1])C(=O)[*:2]].D.S.E.E.H.Q.[am]}$$$$V2.0; N-terminus assumed
SMILES: C[C@H](NC(=O)[C@@H](N)Cc1ccc(O)cc1)C(=O)NCC(=O)N[C@@H](CO)C(=O)N[C@H](C(=O)N[C@@H](CC(=O)O)C(=O)N[C@@H](CCC(=O)O)C(=O)N[C@@H](CC(N)=O)C(=O)N[C@H](C(=O)N[C@@H](CC(=O)O)C(=O)N[C@@H](CO)C(=O)N[C@@H](CCC(=O)O)C(=O)N[C@@H](CCC(=O)O)C(=O)N[C@@H](Cc1c[nH]cn1)C(=O)N[C@@H](CCC(N)=O)C(N)=O)[C@@H](C)OP(=O)(O)O)[C@@H](C)O
In the case of B7, the Kd was determined as 35 µM in assay [2] and 42 µM in assay [3].

B8: XRCC4 229-237 peptide phosphorylated on Thr233 (peptide)
peptide: YDESTDEES
HELM: PEPTIDE1{Y.D.E.S.[C[C@@H](OP(=O)(O)O)[C@H](N[*:1])C(=O)[*:2]].D.E.E.S.[am]}$$$$V2.0; N-terminus assumed
SMILES: C[C@@H](OP(=O)(O)O)[C@H](NC(=O)[C@H](CO)NC(=O)[C@H](CCC(=O)O)NC(=O)[C@H](CC(=O)O)NC(=O)[C@@H](N)Cc1ccc(O)cc1)C(=O)N[C@@H](CC(=O)O)C(=O)N[C@@H](CCC(=O)O)C(=O)N[C@@H](CCC(=O)O)C(=O)N[C@@H](CO)C(N)=O
On to B8, for which the values for the Kd in assay [1], in assay [2] and in assay [3] were 6.8 µM, 3.6 µM and 2.1 µM, respectively.

B9: XRCC4 229-237 peptide phosphorylated on Ser232, Thr233 and Ser237 (peptide)
peptide: YDE[pS][pT]DEE[pS]-NH2
modifications: N-terminus assumed
SMILES: C[C@@H](OP(=O)(O)O)[C@H](NC(=O)[C@H](COP(=O)(O)O)NC(=O)[C@H](CCC(=O)O)NC(=O)[C@H](CC(=O)O)NC(=O)[C@@H](N)Cc1ccc(O)cc1)C(=O)N[C@@H](CC(=O)O)C(=O)N[C@@H](CCC(=O)O)C(=O)N[C@@H](CCC(=O)O)C(=O)N[C@@H](COP(=O)(O)O)C(N)=O
B9: the Kd was determined as 1.3 µM in assay [1], 0.42 µM in assay [2] and 0.14 µM in assay [3].

In general, Kd refers to the free concentration of one partner at which half of the binding sites on the other are occupied at equilibrium, for simple one-to-one binding. A low value points to a tighter complex.
